Measurements reported in patent publication US20050054106.

Target: T1, PhiC31 integrase (Streptomyces phage PhiC31) (UniProt Q9T221)
T1 sequence: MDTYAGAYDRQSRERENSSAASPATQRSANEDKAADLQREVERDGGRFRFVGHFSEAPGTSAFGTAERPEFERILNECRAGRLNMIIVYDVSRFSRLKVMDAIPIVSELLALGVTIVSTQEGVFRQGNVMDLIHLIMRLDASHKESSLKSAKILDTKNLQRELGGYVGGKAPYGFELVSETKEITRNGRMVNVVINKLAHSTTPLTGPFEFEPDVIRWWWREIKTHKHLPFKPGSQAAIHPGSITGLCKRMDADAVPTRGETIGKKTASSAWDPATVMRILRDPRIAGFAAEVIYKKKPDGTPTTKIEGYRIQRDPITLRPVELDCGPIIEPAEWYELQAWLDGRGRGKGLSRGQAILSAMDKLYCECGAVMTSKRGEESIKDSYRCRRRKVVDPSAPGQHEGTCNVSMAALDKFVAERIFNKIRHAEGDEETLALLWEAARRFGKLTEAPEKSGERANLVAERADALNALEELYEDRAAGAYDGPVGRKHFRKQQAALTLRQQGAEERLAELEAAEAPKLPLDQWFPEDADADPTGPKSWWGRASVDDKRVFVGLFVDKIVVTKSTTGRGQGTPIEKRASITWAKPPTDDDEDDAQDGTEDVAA
Assay: cell_activity
Conditions: S. pombe FY527attP, pLT45+pLT43; 63 without integrase, 120 with thiamine repression

Q: For “attB (pLT45, 500 bp fragment) ; attP 84 bp (pLT44)”, which activity (transformants per 10^7 cells) is on record?
A: 1100
